Assay results as given in article PMC4986862.

Target: BD–PTLΔC1 (PETAL LOSS with the C-terminal activation region removed, fused to the GAL4 binding domain) (Arabidopsis thaliana)
Test: two-hybrid; quantitative: α-galactosidase activity of the MEL1 reporter in liquid cultures, triplicate technical assays; BD–PTLΔC1 bait

B1: AD–AKIN11 (full-length AKIN11 fused to the GAL4 activation domain) (natural protein)
chain: MDHSSNRFGNNGVESILPNYKLGKTLGIGSFGKVKIAEHVVTGHKVAIKILNRRKIKNMEMEEKVRREIKILRLFMHPHIIRQYEVIETTSDIYVVMEYVKSGELFDYIVEKGRLQEDEARNFFQQIISGVEYCHRNMVVHRDLKPENLLLDSRCNIKIADFGLSNVMRDGHFLKTSCGSPNYAAPEVISGKLYAGPEVDVWSCGVILYALLCGTLPFDDENIPNLFKKIKGGIYTLPSHLSSEARDLIPRMLIVDPVKRITIPEIRQHRWFQTHLPRYLAVSPPDTVEQAKKINEEIVQEVVNMGFDRNQVLESLRNRTQNDATVTYYLLLDNRFRVPSGYLESEFQETTDSGSNPMRTPEAGASPVGHWIPAHVDHYGLGARSQVPVDRKWALGLQSHAHPREIMNEVLKALQELNVCWKKIGHYNMKCRWVPGLADGQNTMVNNQLHFRDESSIIEDDCAMTSPTVIKFELQLYKAREEKYLLDIQRVNGPQFLFLDLCAAFLTELRVI
For B1, the fold lower reporter (α-galactosidase) activation than AD–AKIN10 was over 10 fold.
